From article PMC3135399

Target: microtubules (taxol-stabilised, of the MT cosedimentation assay) (bovine) (UniProt Q6B856)
Assay: co-sedimentation

alkaline phosphatase–treated WT CPC, P38283 1-698; P38991 1-367; P47134 1-954; Q3E7Y6 1-73
percent cosedimented with MTs: 50%
